Results as given in paper PMC5983932 (Oncology Reports, 2018).

B1: recombinant human His-tag-PRMT2 protein (protein arginine N-methyltransferase 2) (enzyme, UniProt P55345-1 1-433, looked up)
chain: MATSGDCPRSESQGEEPAECSEAGLLQEGVQPEEFVAIADYAATDETQLSFLRGEKILILRQTTADWWWGERAGCCGYIPANHVGKHVDEYDPEDTWQDEEYFGSYGTLKLHLEMLADQPRTTKYHSVILQNKESLTDKVILDVGCGTGIISLFCAHYARPRAVYAVEASEMAQHTGQLVLQNGFADIITVYQQKVEDVVLPEKVDVLVSEWMGTCLLFEFMIESILYARDAWLKEDGVIWPTMAALHLVPCSADKDYRSKVLFWDNAYEFNLSALKSLAVKEFFSKPKYNHILKPEDCLSEPCTILQLDMRTVQISDLETLRGELRFDIRKAGTLHGFTAWFSVHFQSLQEGQPPQVLSTGPFHPTTHWKQTLFMMDDPVPVHTGDVVTGSVVLQRNPVWRRHMSVALSWAVTSRQDPTSQKVGEKVFPIWR
B2: GST-ER-α36 fusion protein (receptor, UniProt P03372-4 1-310, looked up)
chain: MAMESAKETRYCAVCNDYASGYHYGVWSCEGCKAFFKRSIQGHNDYMCPATNQCTIDKNRRKSCQACRLRKCYEVGMMKGGIRKDRRGGRMLKHKRQRDDGEGRGEVGSAGDMRAANLWPSPLMIKRSKKNSLALSLTADQMVSALLDAEPPILYSEYDPTRPFSEASMMGLLTNLADRELVHMINWAKRVPGFVDLTLHDQVHLLECAWLEILMIGLVWRSMEHPGKLLFAPNLLLDRNQGKCVEGMVEIFDMLLATSSRFRMMNLQGEEFVCLKSIILLNSGISHVEAKKRILNLHPKIFGNKWFPRV

Key:
[1] = target: T1, GST-ER-α66 fusion protein (UniProt P03372 1-595); experiment: pull-down
T1 sequence (looked up): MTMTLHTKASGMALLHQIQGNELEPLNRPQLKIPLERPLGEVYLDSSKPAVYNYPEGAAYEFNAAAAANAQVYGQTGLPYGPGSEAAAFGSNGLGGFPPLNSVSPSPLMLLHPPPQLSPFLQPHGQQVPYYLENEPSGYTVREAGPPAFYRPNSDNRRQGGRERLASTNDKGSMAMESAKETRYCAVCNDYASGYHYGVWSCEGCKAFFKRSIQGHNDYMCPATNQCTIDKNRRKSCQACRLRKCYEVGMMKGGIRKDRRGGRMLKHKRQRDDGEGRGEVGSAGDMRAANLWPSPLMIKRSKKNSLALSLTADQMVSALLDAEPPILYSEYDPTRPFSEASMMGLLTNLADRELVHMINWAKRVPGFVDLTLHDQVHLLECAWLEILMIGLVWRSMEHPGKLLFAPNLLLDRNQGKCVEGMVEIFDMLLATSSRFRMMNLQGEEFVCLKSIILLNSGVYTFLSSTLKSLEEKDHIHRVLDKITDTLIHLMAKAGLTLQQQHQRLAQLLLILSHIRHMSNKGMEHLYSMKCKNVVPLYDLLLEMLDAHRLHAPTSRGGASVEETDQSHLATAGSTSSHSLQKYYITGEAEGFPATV

[2] = target: B1; experiment: pull-down

| Binder | binding result [1] | binding result [2] |
| --- | --- | --- |
| B1 | binds |  |
| B2 |  | binds |
